In paper PMC7347944 (Communications Biology, 2020):

Target: T1, amyloid-β oligomers (UniProt P05067 672-713)
T1 construct: also called AβO; Aβ oligomers
Assay: co-sedimentation
Settings: both partners purified

Row | Binder | binding result
1 | full-length huPrP(23−230) (natural protein) not shown | binds
2 | huPrP(23−144) (domain or fragment) KKRPKPGGWNTGGSRYPGQGSPGGNRYPPQGGGGWGQPHGGGWGQPHGGGWGQPHGGGWGQPHGGGWGQGGGTHSQWNKPSKPKTNMKHMAGAAAAGAVVGGLGGYMLGSAMSRPIIHFGSD | binds
3 | huPrP(23−111) (domain or fragment) KKRPKPGGWNTGGSRYPGQGSPGGNRYPPQGGGGWGQPHGGGWGQPHGGGWGQPHGGGWGQPHGGGWGQGGGTHSQWNKPSKPKTNMKH | binds
